From article PMC6587457, “The green microalga Lobosphaera incisa harbours an arachidonate 15S‐lipoxygenase” (Plant Biology (Stuttgart, Germany), 2018)

What was measured:
LiLOX = target: T1, LiLOX (Lobosphaera incisa, UniProt A0A3G6V563); experiment: absorbance at […] nm (conjugated diene); type: biochemical; details: Hill equation fit (not Michaelis-Menten), 20 mM Bis-TRIS propane pH 7.5, 30 °C, 1 μg enzyme, 10-100 μM substrate
T1 construct: full length 994 aa; cloned without N-terminal putative plastid signal peptide of 62 residues (ChloroP); N-terminal His tag, pET28a; E. coli BL21 Star; IMAC and SEC
T1 sequence (A0A3G6V563 63-994): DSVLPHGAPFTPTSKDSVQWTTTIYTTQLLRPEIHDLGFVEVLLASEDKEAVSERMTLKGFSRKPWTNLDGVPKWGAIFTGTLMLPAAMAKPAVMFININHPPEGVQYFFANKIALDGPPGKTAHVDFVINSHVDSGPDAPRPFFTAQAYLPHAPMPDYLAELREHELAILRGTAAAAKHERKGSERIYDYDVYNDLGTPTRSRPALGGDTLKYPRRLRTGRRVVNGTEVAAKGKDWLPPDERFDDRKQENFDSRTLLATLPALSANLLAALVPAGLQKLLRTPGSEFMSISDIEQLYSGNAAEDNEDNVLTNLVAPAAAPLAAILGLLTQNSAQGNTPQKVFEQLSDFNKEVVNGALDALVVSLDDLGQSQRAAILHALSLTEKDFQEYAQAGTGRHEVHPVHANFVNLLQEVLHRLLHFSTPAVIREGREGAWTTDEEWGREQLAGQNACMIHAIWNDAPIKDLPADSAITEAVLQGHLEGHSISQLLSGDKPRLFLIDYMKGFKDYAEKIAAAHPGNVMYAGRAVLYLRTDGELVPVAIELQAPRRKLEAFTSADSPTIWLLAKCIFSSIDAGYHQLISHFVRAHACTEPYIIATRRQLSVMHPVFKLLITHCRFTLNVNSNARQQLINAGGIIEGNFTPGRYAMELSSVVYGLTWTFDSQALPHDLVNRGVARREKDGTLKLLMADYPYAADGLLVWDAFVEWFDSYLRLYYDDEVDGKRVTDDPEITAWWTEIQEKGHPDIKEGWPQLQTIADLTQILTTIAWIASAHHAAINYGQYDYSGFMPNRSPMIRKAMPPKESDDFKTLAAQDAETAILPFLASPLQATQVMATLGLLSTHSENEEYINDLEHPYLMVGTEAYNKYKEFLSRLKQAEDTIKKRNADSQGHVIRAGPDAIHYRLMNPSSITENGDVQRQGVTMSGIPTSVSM

purified protein = substrate: CCCCC/C=C\C/C=C\C/C=C\C/C=C\CCCC(=O)O; experiment: purified protein; type: biochemical, Lobosphaera incisa; details: Hill equation fit (not Michaelis-Menten), 20 mM Bis-TRIS propane pH 7.5, 30 °C, 1 μg enzyme, 10-100 μM substrate

In the case of `CCCCC/C=C\C/C=C\CCCCCCCC(=O)O` [18:2(n‐6)], the Km (LiLOX) is reported as 31.2 ± 2.78 µM.

For `CC/C=C\C/C=C\C/C=C\CCCCCCCC(=O)O` [18:3(n‐3)], the Km (LiLOX) was 55.5 ± 4.1 µM.

B1: LiLOX (Lobosphaera incisa) (protein)
chain: DSVLPHGAPFTPTSKDSVQWTTTIYTTQLLRPEIHDLGFVEVLLASEDKEAVSERMTLKGFSRKPWTNLDGVPKWGAIFTGTLMLPAAMAKPAVMFININHPPEGVQYFFANKIALDGPPGKTAHVDFVINSHVDSGPDAPRPFFTAQAYLPHAPMPDYLAELREHELAILRGTAAAAKHERKGSERIYDYDVYNDLGTPTRSRPALGGDTLKYPRRLRTGRRVVNGTEVAAKGKDWLPPDERFDDRKQENFDSRTLLATLPALSANLLAALVPAGLQKLLRTPGSEFMSISDIEQLYSGNAAEDNEDNVLTNLVAPAAAPLAAILGLLTQNSAQGNTPQKVFEQLSDFNKEVVNGALDALVVSLDDLGQSQRAAILHALSLTEKDFQEYAQAGTGRHEVHPVHANFVNLLQEVLHRLLHFSTPAVIREGREGAWTTDEEWGREQLAGQNACMIHAIWNDAPIKDLPADSAITEAVLQGHLEGHSISQLLSGDKPRLFLIDYMKGFKDYAEKIAAAHPGNVMYAGRAVLYLRTDGELVPVAIELQAPRRKLEAFTSADSPTIWLLAKCIFSSIDAGYHQLISHFVRAHACTEPYIIATRRQLSVMHPVFKLLITHCRFTLNVNSNARQQLINAGGIIEGNFTPGRYAMELSSVVYGLTWTFDSQALPHDLVNRGVARREKDGTLKLLMADYPYAADGLLVWDAFVEWFDSYLRLYYDDEVDGKRVTDDPEITAWWTEIQEKGHPDIKEGWPQLQTIADLTQILTTIAWIASAHHAAINYGQYDYSGFMPNRSPMIRKAMPPKESDDFKTLAAQDAETAILPFLASPLQATQVMATLGLLSTHSENEEYINDLEHPYLMVGTEAYNKYKEFLSRLKQAEDTIKKRNADSQGHVIRAGPDAIHYRLMNPSSITENGDVQRQGVTMSGIPTSVSM
notes: full length 994 aa; cloned without N-terminal putative plastid signal peptide of 62 residues (ChloroP); N-terminal His tag, pET28a; E. coli BL21 Star; IMAC and SEC
With B1 the K0.5 (purified protein) was 12.64 ± 1.1 µM, the kcat (purified protein) was 10.1 ± 0.454 s⁻¹ and the kcat/Km (purified protein) was 799000 M⁻¹ s⁻¹.
